This series deals with beta-galactosidase (UniProt P00722 P00722:2-1024). Put plainly: EMSA; data not shown; negative control protein. Conditions: tags: pure protein, chain copies: 4, label: 32P. The protocol: 11:1475-1489). Protein extracts from lysogens were prepared as described (see, for example, Cowell, I. G. and H. C. Hurst. 199. Cloning transcription factors from a cDNA expression library, p.120-122. In D. S. Latchman (ed.), Transcription factors: a practical approach. IRL Press, New York). Competitors were pre-incubated with nuclear extract for 20 minutes prior to addition of the probe. Oligonucleotides sequences of probes and competitors for EMSA analyses are shown below.
To verify that the cDNA encoded a protein with the expected binding specificities of BP1, namely, the ability to bind to Silencers I and II upstream of the β-globin gene and to a sequence −530 bp upstream of the δ-globin gene (see, for example, Berg, P. E., S. Abhyankar, and M. Chase. 1994. The high mobility group protein HMG-I(Y) binds to a silencer DNA sequence upstream of the human β-globin gene. Blood 84 Suppl 1:262a), an EMSA competition assay was performed. The putative BP1 protein, fused to β-galactosidase, was expressed from a λ lysogen, as described above. This fusion protein was partially purified and incubated with the Silencer II probe used for screening the library, resulting in a single shifted band, indicated by the arrow (FIG. 2, lane 1). The band at the top marks the position of the wells, and the band at the bottom contains the unshifted probe. […]
A general note: Mobility shift assays separate free from complexed probe on a gel.

Chain of beta-galactosidase (P00722 2-1024, one chain of several): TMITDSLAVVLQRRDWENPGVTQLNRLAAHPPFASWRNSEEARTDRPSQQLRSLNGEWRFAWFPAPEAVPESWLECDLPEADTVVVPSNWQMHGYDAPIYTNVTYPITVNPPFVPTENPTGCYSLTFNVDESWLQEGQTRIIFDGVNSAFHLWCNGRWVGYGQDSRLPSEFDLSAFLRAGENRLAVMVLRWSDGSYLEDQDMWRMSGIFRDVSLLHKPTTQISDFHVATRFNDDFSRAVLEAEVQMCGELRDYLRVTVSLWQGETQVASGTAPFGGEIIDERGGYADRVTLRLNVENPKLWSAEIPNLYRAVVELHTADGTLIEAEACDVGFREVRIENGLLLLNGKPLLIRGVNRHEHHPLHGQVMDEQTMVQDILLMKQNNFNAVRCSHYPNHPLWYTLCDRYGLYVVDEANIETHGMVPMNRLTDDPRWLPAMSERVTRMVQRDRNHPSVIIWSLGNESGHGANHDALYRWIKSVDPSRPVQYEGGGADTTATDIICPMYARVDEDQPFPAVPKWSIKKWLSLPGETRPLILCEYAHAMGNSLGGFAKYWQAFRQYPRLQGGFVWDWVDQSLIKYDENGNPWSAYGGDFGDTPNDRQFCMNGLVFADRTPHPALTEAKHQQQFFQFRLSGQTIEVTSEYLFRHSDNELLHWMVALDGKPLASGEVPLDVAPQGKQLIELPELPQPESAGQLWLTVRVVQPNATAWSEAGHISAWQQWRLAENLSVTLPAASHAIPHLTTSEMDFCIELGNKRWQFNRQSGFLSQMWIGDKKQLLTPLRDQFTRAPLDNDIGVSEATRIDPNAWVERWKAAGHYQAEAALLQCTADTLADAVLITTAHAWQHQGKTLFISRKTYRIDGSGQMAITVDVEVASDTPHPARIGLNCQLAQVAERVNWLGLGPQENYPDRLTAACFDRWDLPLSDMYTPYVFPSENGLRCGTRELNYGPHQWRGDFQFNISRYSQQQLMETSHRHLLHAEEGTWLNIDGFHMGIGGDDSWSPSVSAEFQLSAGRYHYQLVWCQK

B1: -300 beta (Silencer II) (dsDNA)
DNA 1: TTCTTATTTGTGTAATAAGAAAATTGGGAAAACGATCTTCAATATGCTTACCAAGCTG
DNA 2: CAGCTTGGTAAGCATATTGAAGATCGTTTTCCCAATTTTCTTATTACACAAATAAGAA
As for B1, the binding result is “no binding”.

For the origin of these results see patent US20030171273, “Novel transcription factor, BP1” (published 2003).
